Measurements reported in US20230357348A1 (AstraZeneca / MedImmune, published 2023).
Starred links: 1 amine or outer side, 2 acyl side, 3 side chain; linkers in the order of their positions; H or OH if unused. Non-standard residues stand in square brackets, D forms with d. Groups on a side chain read outwards from the residue. Primed or numbered codes have the meaning given here. No end group written: not given here. *: point of attachment. (PEG)2″ = polyethylene glycol 2 linker unit; C20 diacid = O=C(O)CCCCCCCCCCCCCCCCCCC(=O)*; C18 diacid = O=C(O)CCCCCCCCCCCCCCCCC(=O)*; Heptadecanoyl = CCCCCCCCCCCCCCCCC(=O)*; γGlu = O=C(O)[C@H](CCC(=O)[*:2])N[*:1]; Stearoyl = CCCCCCCCCCCCCCCCCC(=O)*; Palmitoyl = CCCCCCCCCCCCCCCC(=O)*; αMeF = C[C@](N)(Cc1ccccc1)C(=O)O; Myristoyl = CCCCCCCCCCCCCC(=O)*; (PEG)2 = polyethylene glycol 2; PEG2′ = polyethylene glycol 2; AEEA = NCCOCCOCC(=O)O; Aib = CC(C)(N)C(=O)O

Key:
[1] = molecular target: human GLP-1 receptor (hGLP-1R) (human, UniProt P43220 24-463); assay: cell-based or functional assay
[2] = molecular target: human glucagon receptor (hGCGR) (human, UniProt P47871 26-477); assay: cell-based or functional assay
Chain of human glucagon receptor (hGCGR) (P47871 26-477): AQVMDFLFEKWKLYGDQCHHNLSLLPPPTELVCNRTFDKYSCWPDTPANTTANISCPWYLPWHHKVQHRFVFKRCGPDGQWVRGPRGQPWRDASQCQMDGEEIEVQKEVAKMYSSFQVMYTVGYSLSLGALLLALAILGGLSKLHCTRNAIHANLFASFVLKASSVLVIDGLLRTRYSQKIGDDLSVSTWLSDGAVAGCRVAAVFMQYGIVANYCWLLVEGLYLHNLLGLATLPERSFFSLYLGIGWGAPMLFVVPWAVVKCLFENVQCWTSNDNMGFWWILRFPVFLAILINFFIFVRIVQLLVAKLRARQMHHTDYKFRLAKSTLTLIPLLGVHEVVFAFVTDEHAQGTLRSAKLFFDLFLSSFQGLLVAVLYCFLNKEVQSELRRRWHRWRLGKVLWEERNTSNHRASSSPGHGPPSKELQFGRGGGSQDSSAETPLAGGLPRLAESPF

Binder	hGLP-1R EC50 (pM) [1]	hGluc-R EC50 (pM) [2]
HSQGS[αMeF]TSDVSK(Ac)[Aib]LDSK([AEEA-AEEA-γGlu-C18 diacid])AAQD[αMeF]VQ[Aib]IAN-NH2 (N-terminus assumed; SMILES CC[C@H](C)[C@H](NC(=O)C(C)(C)NC(=O)[C@H](CCC(N)=O)NC(=O)[C@@H](NC(=O)[C@](C)(Cc1ccccc1)NC(=O)[C@H](CC(=O)O)NC(=O)[C@H](CCC(N)=O)NC(=O)[C@H](C)NC(=O)[C@H](C)NC(=O)[C@H](CCCCNC(=O)COCCOCCNC(=O)COCCOCCNC(=O)CC[C@H](NC(=O)CCCCCCCCCCCCCCCCC(=O)O)C(=O)O)NC(=O)[C@H](CO)NC(=O)[C@H](CC(=O)O)NC(=O)[C@H](CC(C)C)NC(=O)C(C)(C)NC(=O)[C@H](CCCCNC(C)=O)NC(=O)[C@H](CO)NC(=O)[C@@H](NC(=O)[C@H](CC(=O)O)NC(=O)[C@H](CO)NC(=O)[C@@H](NC(=O)[C@](C)(Cc1ccccc1)NC(=O)[C@H](CO)NC(=O)CNC(=O)[C@H](CCC(N)=O)NC(=O)[C@H](CO)NC(=O)[C@@H](N)Cc1c[nH]cn1)[C@@H](C)O)C(C)C)C(C)C)C(=O)N[C@@H](C)C(=O)N[C@@H](CC(N)=O)C(N)=O) [Peptide 109]	698 pM	> 26800 pM
H[Aib]HGS[αMeF]TSDVSK[αMeF]LDSK([AEEA-AEEA-γGlu-γGlu-C20 diacid])AARD[αMeF]VQ[Aib]IANT-NH2 (N-terminus assumed; SMILES CC[C@H](C)[C@H](NC(=O)C(C)(C)NC(=O)[C@H](CCC(N)=O)NC(=O)[C@@H](NC(=O)[C@](C)(Cc1ccccc1)NC(=O)[C@H](CC(=O)O)NC(=O)[C@H](CCCNC(=N)N)NC(=O)[C@H](C)NC(=O)[C@H](C)NC(=O)[C@H](CCCCNC(=O)COCCOCCNC(=O)COCCOCCNC(=O)CC[C@H](NC(=O)CC[C@H](NC(=O)CCCCCCCCCCCCCCCCCCC(=O)O)C(=O)O)C(=O)O)NC(=O)[C@H](CO)NC(=O)[C@H](CC(=O)O)NC(=O)[C@H](CC(C)C)NC(=O)[C@](C)(Cc1ccccc1)NC(=O)[C@H](CCCCN)NC(=O)[C@H](CO)NC(=O)[C@@H](NC(=O)[C@H](CC(=O)O)NC(=O)[C@H](CO)NC(=O)[C@@H](NC(=O)[C@](C)(Cc1ccccc1)NC(=O)[C@H](CO)NC(=O)CNC(=O)[C@H](Cc1c[nH]cn1)NC(=O)C(C)(C)NC(=O)[C@@H](N)Cc1c[nH]cn1)[C@@H](C)O)C(C)C)C(C)C)C(=O)N[C@@H](C)C(=O)N[C@@H](CC(N)=O)C(=O)N[C@H](C(N)=O)[C@@H](C)O) [Peptide 14]	93.8 pM	462 pM
HSQGS[αMeF]TSDVSK[Aib]LDSK([(PEG)2″-(PEG)2″-γGlu-γGlu-Stearyl])AAQD[αMeF]VQ[Aib]IAN-NH2 [Peptide 100]	0.258 pM	40.5 pM
HSQGS[αMeF]TSDVSK(Ac)[Aib]LDSK([PEG2′-PEG2′-γGlu-γGlu-Stearyl])AAQD[αMeF]VQ[Aib]IAN-NH2 [Peptide 110]	0.627 pM	48.5 pM
H[Aib]HGS[αMeF]TSDVSK[αMeF]LDSK([AEEA-AEEA-γGlu-C18 diacid])AAQDFVQ[Aib]IANT-NH2 [Peptide 11]	157 pM	118 pM
HSQGS[αMeF]TSDVSK[αMeF]LDSK([(PEG)2-(PEG)2-γGlu-γGlu-Heptadecanoyl])AAQD[αMeF]VQ[Aib]IAN-NH2 [Peptide 88]	1.04 pM	6.47 pM
H[Aib]HGS[αMeF]TSDVSK[αMeF]LDSK([AEEA-AEEA-γGlu-C18 diacid])AARD[αMeF]VQ[Aib]IANT-NH2 (N-terminus assumed; SMILES CC[C@H](C)[C@H](NC(=O)C(C)(C)NC(=O)[C@H](CCC(N)=O)NC(=O)[C@@H](NC(=O)[C@](C)(Cc1ccccc1)NC(=O)[C@H](CC(=O)O)NC(=O)[C@H](CCCNC(=N)N)NC(=O)[C@H](C)NC(=O)[C@H](C)NC(=O)[C@H](CCCCNC(=O)COCCOCCNC(=O)COCCOCCNC(=O)CC[C@H](NC(=O)CCCCCCCCCCCCCCCCC(=O)O)C(=O)O)NC(=O)[C@H](CO)NC(=O)[C@H](CC(=O)O)NC(=O)[C@H](CC(C)C)NC(=O)[C@](C)(Cc1ccccc1)NC(=O)[C@H](CCCCN)NC(=O)[C@H](CO)NC(=O)[C@@H](NC(=O)[C@H](CC(=O)O)NC(=O)[C@H](CO)NC(=O)[C@@H](NC(=O)[C@](C)(Cc1ccccc1)NC(=O)[C@H](CO)NC(=O)CNC(=O)[C@H](Cc1c[nH]cn1)NC(=O)C(C)(C)NC(=O)[C@@H](N)Cc1c[nH]cn1)[C@@H](C)O)C(C)C)C(C)C)C(=O)N[C@@H](C)C(=O)N[C@@H](CC(N)=O)C(=O)N[C@H](C(N)=O)[C@@H](C)O) [Peptide 13]	15.9 pM	44 pM
H[Aib]HGS[αMeF]TSDVSK[αMeF]LDSK([AEEA-AEEA-γGlu-C18 diacid])AARDFVQ[Aib]IANT-NH2 (N-terminus assumed; SMILES CC[C@H](C)[C@H](NC(=O)C(C)(C)NC(=O)[C@H](CCC(N)=O)NC(=O)[C@@H](NC(=O)[C@H](Cc1ccccc1)NC(=O)[C@H](CC(=O)O)NC(=O)[C@H](CCCNC(=N)N)NC(=O)[C@H](C)NC(=O)[C@H](C)NC(=O)[C@H](CCCCNC(=O)COCCOCCNC(=O)COCCOCCNC(=O)CC[C@H](NC(=O)CCCCCCCCCCCCCCCCC(=O)O)C(=O)O)NC(=O)[C@H](CO)NC(=O)[C@H](CC(=O)O)NC(=O)[C@H](CC(C)C)NC(=O)[C@](C)(Cc1ccccc1)NC(=O)[C@H](CCCCN)NC(=O)[C@H](CO)NC(=O)[C@@H](NC(=O)[C@H](CC(=O)O)NC(=O)[C@H](CO)NC(=O)[C@@H](NC(=O)[C@](C)(Cc1ccccc1)NC(=O)[C@H](CO)NC(=O)CNC(=O)[C@H](Cc1c[nH]cn1)NC(=O)C(C)(C)NC(=O)[C@@H](N)Cc1c[nH]cn1)[C@@H](C)O)C(C)C)C(C)C)C(=O)N[C@@H](C)C(=O)N[C@@H](CC(N)=O)C(=O)N[C@H](C(N)=O)[C@@H](C)O) [Peptide 12]	14.5 pM	47.7 pM

The next lines start with the values.

hGLP-1R EC50 (pM) [1]	hGluc-R EC50 (pM) [2]	Binder
0.788 pM	4.7 pM	H[Aib]QGS[αMeF]TSDVSKILDSK([PEG2′-PEG2′-γGlu-Palmitoyl])AAQD[αMeF]VQ[Aib]IINT-NH2 [Peptide 128]
0.462 pM	4.1 pM	H[Aib]QGS[αMeF]TSDVSKILDSK([PEG2′-PEG2′-γGlu-Myristoyl])AAQD[αMeF]VQ[Aib]IINT-NH2 [Peptide 129]
1.07 pM	1.2 pM	HSQGS[αMeF]TSDVSKILDSK([PEG2′-PEG2′-γGlu-γGlu-Palmitoyl])AAQD[αMeF]VQ[Aib]IINT-NH2 [Peptide 118]
0.575 pM	6.68 pM	H[Aib]QGS[αMeF]TSDVSKILDSK([PEG2′-PEG2′-γGlu-γGlu-Palmitoyl])AAQD[αMeF]VQ[Aib]IINT-NH2 [Peptide 125]
1.5 pM	1.2 pM	HSQGS[αMeF]TSDVSKILDSK([PEG2′-PEG2′-γGlu-Palmitoyl])AAQD[αMeF]VQ[Aib]IINT-NH2 [Peptide 121]
1.92 pM	2.09 pM	HSQGS[αMeF]TSDVSKILDSKAAQD[αMeF]VQ[Aib]IAN-NH2 (not fully specified (residue 17)) [Peptide 111]
1.39 pM	1.7 pM	HSQGS[αMeF]TSDVSKILDSK([PEG2′-PEG2′-γGlu-γGlu-Myristoyl])AAQD[αMeF]VQ[Aib]IINT-NH2 [Peptide 119]
0.998 pM	12.6 pM	H[Aib]QGS[αMeF]TSDVSKILDSK([PEG2′-PEG2′-γGlu-Stearoyl])AAQD[αMeF]VQ[Aib]IINT-NH2 [Peptide 127]
1.42 pM	0.857 pM	HSQGS[αMeF]TSDVSKILDSK([PEG2′-PEG2′-γGlu-Myristoyl])AAQD[αMeF]VQ[Aib]IINT-NH2 [Peptide 122]
1.81 pM	2.62 pM	HSQGS[αMeF]TSDVSKILDSK([PEG2′-PEG2′-γGlu-Stearoyl])AAQD[αMeF]VQ[Aib]IINT-NH2 [Peptide 120]
